According to the supplement of paper PMC10567573:

B1: MYBL2 (parent)
chain: IAKHLKGRLGKQCRERWHNHLNPE

Variants of: B1
Assay: protein stability index of a GFP-peptide fusion (GPS, HEK-293T) (PSI 1-6); higher = more stable
Details: c terminus: a fixed tail appended
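Note: lentivirally expressed fusions sorted by FACS into six bins by GFP to DsRed ratio, PSI derived from sequencing read proportions per bin multiplied by bin number.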

Q: Which protein stability index does the source give for IAKHLKGRLGKQCSERWHNHLNPE here?
A: 1.5

Q: With IAKHLKGRLGKQCFERWHNHLNPE as the variant, how does the protein stability index read?
A: 1.47

Q: With IAKHLKGRLGKSCRERWHNHLNPE as the variant, how does the protein stability index read?
A: 2.77

Q: Which protein stability index does the source give for IAKHLKGRLGKACRERWHNHLNPE here?
A: 1.29

Q: Which protein stability index does the source give for IAKHLKGRLGKLCRERWHNHLNPE here?
A: 2.32

Q: With IAKHLKGRLGKICRERWHNHLNPE as the variant, how does the protein stability index read?
A: 2.97

Q: Which protein stability index does the source give for IAKHLKGRLGKKCRERWHNHLNPE here?
A: 1.51

Q: With IAKHLKGRLGKPCRERWHNHLNPE as the variant, how does the protein stability index read?
A: 1.54

Q: With IAKHLKGRLGKHCRERWHNHLNPE as the variant, how does the protein stability index read?
A: 2.38

Q: For IAKHLKGRLGKNCRERWHNHLNPE, which protein stability index is on record?
A: 1.38

Q: With IAKHLKGRLGKDCRERWHNHLNPE as the variant, how does the protein stability index read?
A: 1.93

Q: Which protein stability index does the source give for IAKHLKGRLGKTCRERWHNHLNPE here?
A: 1.55

Q: With IAKHLKGRLGKFCRERWHNHLNPE as the variant, how does the protein stability index read?
A: 2.08

Q: Which protein stability index does the source give for IAKHLKGRLGKVCRERWHNHLNPE here?
A: 1.61

Q: With IAKHLKGRLGKECRERWHNHLNPE as the variant, how does the protein stability index read?
A: 1.92

Q: Which protein stability index does the source give for IAKHLKGRLGKMCRERWHNHLNPE here?
A: 1.92

Q: For IAKHLKGRLGKWCRERWHNHLNPE, which protein stability index is on record?
A: 1.93

Q: With IAKHLKGRLGKGCRERWHNHLNPE as the variant, how does the protein stability index read?
A: 3.02

Q: With IAKHLKGRLGKCCRERWHNHLNPE as the variant, how does the protein stability index read?
A: 2.53

Q: With IAKHLKGRLGKRCRERWHNHLNPE as the variant, how does the protein stability index read?
A: 2.44

Q: Which protein stability index does the source give for IAKHLKGRLGKYCRERWHNHLNPE here?
A: 2.33

Q: With IAKHLKGRLGKQCRENWHNHLNPE as the variant, how does the protein stability index read?
A: 2

Q: Which protein stability index does the source give for IAKHLKGRLGKQCRESWHNHLNPE here?
A: 1.85

Q: For IAKHLKGRLGKQCRECWHNHLNPE, which protein stability index is on record?
A: 2.13

Q: For IAKHLKGRLGKQCRELWHNHLNPE, which protein stability index is on record?
A: 2.06

Q: Which protein stability index does the source give for IAKHLKGRLGKQCRETWHNHLNPE here?
A: 2.13

Q: Which protein stability index does the source give for IAKHLKGRLGKQCREMWHNHLNPE here?
A: 2.39

Q: Which protein stability index does the source give for IAKHLKGRLGKQCREYWHNHLNPE here?
A: 2.41

Q: Which protein stability index does the source give for IAKHLKGRLGKQCREKWHNHLNPE here?
A: 2.66

Q: For IAKHLKGRLGKQCREPWHNHLNPE, which protein stability index is on record?
A: 1.96

Q: For IAKHLKGRLGKQCREFWHNHLNPE, which protein stability index is on record?
A: 2.19

Q: For IAKHLKGRLGKQCREQWHNHLNPE, which protein stability index is on record?
A: 2.12

Q: Which protein stability index does the source give for IAKHLKGRLGKQCREDWHNHLNPE here?
A: 2.08

Q: For IAKHLKGRLGKQCREAWHNHLNPE, which protein stability index is on record?
A: 2.21

Q: With IAKHLKGRLGKQCREIWHNHLNPE as the variant, how does the protein stability index read?
A: 1.54

Q: Which protein stability index does the source give for IAKHLKGRLGKQCREVWHNHLNPE here?
A: 2

Q: For IAKHLKGRLGKQCREHWHNHLNPE, which protein stability index is on record?
A: 1.58

Q: Which protein stability index does the source give for IAKHLKGRLGKQCREGWHNHLNPE here?
A: 1.71

Q: With IAKHLKGRLGKQCREEWHNHLNPE as the variant, how does the protein stability index read?
A: 2.58

Q: For IAKHLKGRLGKQCREWWHNHLNPE, which protein stability index is on record?
A: 4.03

Q: With IAKHLKGRLGKQCRERWGNHLNPE as the variant, how does the protein stability index read?
A: 1.85

Q: With IAKHLKGRLGKQCRERWTNHLNPE as the variant, how does the protein stability index read?
A: 2.97

Q: For IAKHLKGRLGKQCRERWLNHLNPE, which protein stability index is on record?
A: 1.55

Q: For IAKHLKGRLGKQCRERWYNHLNPE, which protein stability index is on record?
A: 1.67

Q: With IAKHLKGRLGKQCRERWKNHLNPE as the variant, how does the protein stability index read?
A: 2.87

Q: For IAKHLKGRLGKQCRERWDNHLNPE, which protein stability index is on record?
A: 1.85

Q: With IAKHLKGRLGKQCRERWENHLNPE as the variant, how does the protein stability index read?
A: 1.82

Q: Which protein stability index does the source give for IAKHLKGRLGKQCRERWANHLNPE here?
A: 1.61

Q: For IAKHLKGRLGKQCRERWRNHLNPE, which protein stability index is on record?
A: 1.56

Q: With IAKHLKGRLGKQCRERWFNHLNPE as the variant, how does the protein stability index read?
A: 2.24

Q: With IAKHLKGRLGKQCRERWCNHLNPE as the variant, how does the protein stability index read?
A: 1.8

Q: With IAKHLKGRLGKQCRERWVNHLNPE as the variant, how does the protein stability index read?
A: 1.1

Q: Which protein stability index does the source give for IAKHLKGRLGKQCRERWQNHLNPE here?
A: 2.43

Q: With IAKHLKGRLGKQCRERWPNHLNPE as the variant, how does the protein stability index read?
A: 1.9

Q: Which protein stability index does the source give for IAKHLKGRLGKQCRERWINHLNPE here?
A: 2.73

Q: Which protein stability index does the source give for IAKHLKGRLGKQCRERWNNHLNPE here?
A: 2.33

Q: With IAKHLKGRLGKQCRERWSNHLNPE as the variant, how does the protein stability index read?
A: 1.47

Q: With IAKHLKGRLGKQERERWHNHLNPE as the variant, how does the protein stability index read?
A: 2.68

Q: Which protein stability index does the source give for IAKHLKGRLGKQKRERWHNHLNPE here?
A: 2.34

Q: Which protein stability index does the source give for IAKHLKGRLGKQVRERWHNHLNPE here?
A: 1.97

Q: Which protein stability index does the source give for IAKHLKGRLGKQFRERWHNHLNPE here?
A: 1.65

Q: Which protein stability index does the source give for IAKHLKGRLGKQARERWHNHLNPE here?
A: 2.55

Q: Which protein stability index does the source give for IAKHLKGRLGKQQRERWHNHLNPE here?
A: 1.96

Q: Which protein stability index does the source give for IAKHLKGRLGKQTRERWHNHLNPE here?
A: 2.08

Q: Which protein stability index does the source give for IAKHLKGRLGKQSRERWHNHLNPE here?
A: 2.14

Q: With IAKHLKGRLGKQHRERWHNHLNPE as the variant, how does the protein stability index read?
A: 2.33

Q: Which protein stability index does the source give for IAKHLKGRLGKQIRERWHNHLNPE here?
A: 2.58

Q: Which protein stability index does the source give for IAKHLKGRLGKQGRERWHNHLNPE here?
A: 2.54

Q: Which protein stability index does the source give for IAKHLKGRLGKQLRERWHNHLNPE here?
A: 1.87

Q: Which protein stability index does the source give for IAKHLKGRLGKQPRERWHNHLNPE here?
A: 2.57

Q: With IAKHLKGRLGKQWRERWHNHLNPE as the variant, how does the protein stability index read?
A: 2.19

Q: Which protein stability index does the source give for IAKHLKGRLGKQMRERWHNHLNPE here?
A: 2.01

Q: For IAKHLKGRLGKQYRERWHNHLNPE, which protein stability index is on record?
A: 1.64

Q: Which protein stability index does the source give for IAKHLKGRLGKQRRERWHNHLNPE here?
A: 2.3

Q: With IAKHLKGRLGKQDRERWHNHLNPE as the variant, how does the protein stability index read?
A: 2.57

Q: For IAKHLKGRLGKQNRERWHNHLNPE, which protein stability index is on record?
A: 3.21

Q: With IAKHLKGRLCKQCRERWHNHLNPE as the variant, how does the protein stability index read?
A: 1.74

Q: For IAKHLKGRLDKQCRERWHNHLNPE, which protein stability index is on record?
A: 1.83

Q: With IAKHLKGRLTKQCRERWHNHLNPE as the variant, how does the protein stability index read?
A: 2.16

Q: For IAKHLKGRLYKQCRERWHNHLNPE, which protein stability index is on record?
A: 2.49

Q: For IAKHLKGRLKKQCRERWHNHLNPE, which protein stability index is on record?
A: 1.61

Q: With IAKHLKGRLLKQCRERWHNHLNPE as the variant, how does the protein stability index read?
A: 1.94

Q: Which protein stability index does the source give for IAKHLKGRLVKQCRERWHNHLNPE here?
A: 2.54

Q: With IAKHLKGRLEKQCRERWHNHLNPE as the variant, how does the protein stability index read?
A: 1.48

Q: With IAKHLKGRLHKQCRERWHNHLNPE as the variant, how does the protein stability index read?
A: 1.35

Q: With IAKHLKGRLAKQCRERWHNHLNPE as the variant, how does the protein stability index read?
A: 1.92

Q: With IAKHLKGRLNKQCRERWHNHLNPE as the variant, how does the protein stability index read?
A: 2.52

Q: For IAKHLKGRLIKQCRERWHNHLNPE, which protein stability index is on record?
A: 2.44

Q: With IAKHLKGRLQKQCRERWHNHLNPE as the variant, how does the protein stability index read?
A: 1.96

Q: For IAKHLKGRLSKQCRERWHNHLNPE, which protein stability index is on record?
A: 1.99

Q: For IAKHLKGRLPKQCRERWHNHLNPE, which protein stability index is on record?
A: 2.22

Q: With IAKHLKGRLRKQCRERWHNHLNPE as the variant, how does the protein stability index read?
A: 1.67

Q: For IAKHLKGRLWKQCRERWHNHLNPE, which protein stability index is on record?
A: 2.56

Q: For IAKHLKGRLFKQCRERWHNHLNPE, which protein stability index is on record?
A: 3.24
